Data reported in patent US20260146074A1 (CITY OF HOPE, published 2026).

Target: TAG72 on the surface of human tumor cells (LS174T, OVCAR3, OV90, OVCAR8-sTn, patient ascites OAS4 and OAS7) (human)
Assay: cell-based or functional assay

B1: TAG72-BBζ CAR (hTag72scFv-IgG4(HL-CH3)-CD4tm-41BB-Zeta), expressed on human T cells (other)
chain: QVQLVQSGAEVVKPGASVKISCKASGYTFTDHAIHWVKQNPGQRLEWIGYFSPGNDDFKYNERFKGKATLTADTSASTAYVELSSLRSEDTAVYFCTRSLNMAYWGQGTLVTVSSGSTSGGGSGGGSGGGGSSDIVMSQSPDSLAVSLGERVTLNCKSSQSLLYSGNQKNYLAWYQQKPGQSPKLLIYWASARESGVPDRFSGSGSGTDFTLTISSVQAEDVAVYYCQQYYSYPLTFGAGTKLELKESKYGPPCPPCPGGGSSGGGSGGQPREPQVYTLPPSQEEMTKNQVSLTCLVKGFYPSDIAVEWESNGQPENNYKTTPPVLDSDGSFFLYSRLTVDKSRWQEGNVFSCSVMHEALHNHYTQKSLSLSLGKMALIVLGGVAGLLLFIGLGIFFKRGRKKLLYIFKQPFMRPVQTTQEEDGCSCRFPEEEEGGCELGGGRVKFSRSADAPAYQQGQNQLYNELNLGRREEYDVLDKRRGRDPEMGGKPRRKNPQEGLYNELQKDKMAEAYSEIGMKGERRRGKGHDGLYQGLSTATKDTYDALHMQALPPR
- tumor killing relative to Mock, LS174T cells, 24 hours: 59%
- tumor killing relative to Mock, LS174T cells, 72 hours: 77%
- tumor killing relative to Mock, OV90 cells, 24 hours: 67%
- tumor killing relative to Mock, OV90 cells, 72 hours: 97%
- tumor killing relative to Mock, OVCAR3 cells, 24 hours: 79%
- tumor killing relative to Mock, OVCAR3 cells, 72 hours: 90%
